In publication PMC5409479 one finds exendin-4-mediated cAMP accumulation in HEK293T cells (+azF), pEC50, exendin-4-mediated cAMP accumulation in HEK293T cells, pEC50 and cAMP accumulation in HEK293T cells transiently expressing the human GLP-1R, pEC50 data, which are given here for two substances.

Test [1] deals with human GLP-1R R121azF (human) (UniProt P43220).
The target in test [2] is human GLP-1R E68azF (human) (UniProt P43220).
Test [3] has as its target human GLP-1R L118azF (human) (UniProt P43220).
In test [4] the target is human GLP-1R F61azF (human) (UniProt P43220).
For test [5], the target named is human GLP-1R S117azF (human) (UniProt P43220).
Test [6] has as its target human GLP-1R P119azF (human) (UniProt P43220).
Test [7] has as its target human GLP-1R A70azF (human) (UniProt P43220).
Test [8] has as its target human GLP-1R W91azF (human) (UniProt P43220).
Test [9] has as its target human GLP-1R Y69azF (human) (UniProt P43220).
Test [10] has as its target human GLP-1R S116azF (human) (UniProt P43220).
Test [11] deals with human GLP-1R R134azF (human) (UniProt P43220).
For test [12], the target named is human GLP-1R T35azF (human) (UniProt P43220).
In test [13] the target is human GLP-1R F80azF (human) (UniProt P43220).
Test [14] deals with human GLP-1R V30azF (human) (UniProt P43220).
The target in test [15] is human GLP-1R L89azF (human) (UniProt P43220).
Test [16] concerns the target wild-type human glucagon-like peptide-1 receptor (double c-Myc, V5) (human) (UniProt P43220).
The target of test [17] is human GLP-1R E127azF (human) (UniProt P43220).
The target of test [18] is human GLP-1R W33azF (human) (UniProt P43220).
For test [19], the target named is human GLP-1R S124azF (human) (UniProt P43220).
For test [20], the target named is human GLP-1R S31azF (human) (UniProt P43220).
For test [21], the target named is human GLP-1R R40azF (human) (UniProt P43220).
The target of test [22] is human GLP-1R Y42azF (human) (UniProt P43220).
The target of test [23] is human GLP-1R E138azF (human) (UniProt P43220).
In test [24] the target is human GLP-1R Y88azF (human) (UniProt P43220).
The target in test [25] is human GLP-1R S135azF (human) (UniProt P43220).
The target in test [26] is human GLP-1R L32azF (human) (UniProt P43220).
The target of test [27] is human GLP-1R L123azF (human) (UniProt P43220).
The target of test [28] is human GLP-1R Y101azF (human) (UniProt P43220).
The target in test [29] is human GLP-1R E125azF (human) (UniProt P43220).
The target of test [30] is human GLP-1R P90azF (human) (UniProt P43220).
For test [31], the target named is human GLP-1R W39azF (human) (UniProt P43220).
For test [32], the target named is human GLP-1R V36azF (human) (UniProt P43220).
For test [33], the target named is human GLP-1R F103azF (human) (UniProt P43220).
The target in test [34] is wild-type human glucagon-like peptide-1 receptor (double c-Myc, V5) (human) (UniProt P43220). The source holds these as a separate data set.
Sequence of wild-type human glucagon-like peptide-1 receptor (double c-Myc, V5) (human) (P43220 24-463): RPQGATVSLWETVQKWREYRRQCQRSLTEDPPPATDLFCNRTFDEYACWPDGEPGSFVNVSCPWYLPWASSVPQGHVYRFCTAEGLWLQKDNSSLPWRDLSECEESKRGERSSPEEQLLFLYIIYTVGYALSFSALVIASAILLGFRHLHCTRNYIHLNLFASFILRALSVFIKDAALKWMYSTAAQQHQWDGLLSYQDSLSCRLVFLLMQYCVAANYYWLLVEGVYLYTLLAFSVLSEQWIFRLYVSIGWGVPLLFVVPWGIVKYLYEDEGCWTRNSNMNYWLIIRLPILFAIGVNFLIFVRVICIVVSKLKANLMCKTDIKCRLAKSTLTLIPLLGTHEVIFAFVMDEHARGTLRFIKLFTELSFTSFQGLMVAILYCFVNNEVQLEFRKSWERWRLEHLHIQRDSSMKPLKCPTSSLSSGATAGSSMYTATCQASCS

Sequence of human GLP-1R V30azF (human) (P43220 other isoform, or with tags, fused parts or gaps): as the sequence (P43220 24-463) above, with V7F counted along it
Sequence of human GLP-1R S124azF (human) (P43220 24-463 S124F): as the sequence (P43220 24-463) above, with S101F counted along it
Sequence of human GLP-1R P119azF (human) (P43220 24-463 P119F): as the sequence (P43220 24-463) above, with P96F counted along it
Sequence of human GLP-1R Y69azF (human) (P43220 24-463 Y69F): as the sequence (P43220 24-463) above, with Y46F counted along it
Sequence of human GLP-1R Y42azF (human) (P43220 other isoform, or with tags, fused parts or gaps): as the sequence (P43220 24-463) above, with Y19F counted along it
Sequence of human GLP-1R L118azF (human) (P43220 24-463 L118F): as the sequence (P43220 24-463) above, with L95F counted along it
Sequence of human GLP-1R F103azF (human) (P43220 24-463): as the sequence (P43220 24-463) above
Sequence of human GLP-1R F61azF (human) (P43220 24-463): as above
Sequence of human GLP-1R F80azF (human) (P43220 24-463): as above
Sequence of human GLP-1R L123azF (human) (P43220 24-463 L123F): as the sequence (P43220 24-463) above, with L100F counted along it
Sequence of human GLP-1R P90azF (human) (P43220 24-463 P90F): as the sequence (P43220 24-463) above, with P67F counted along it
Sequence of human GLP-1R R40azF (human) (P43220 other isoform, or with tags, fused parts or gaps): as the sequence (P43220 24-463) above, with R17F counted along it
Sequence of human GLP-1R Y88azF (human) (P43220 24-463 Y88F): as the sequence (P43220 24-463) above, with Y65F counted along it
Sequence of human GLP-1R E125azF (human) (P43220 24-463 E125F): as the sequence (P43220 24-463) above, with E102F counted along it
Sequence of human GLP-1R W91azF (human) (P43220 24-463 W91F): as the sequence (P43220 24-463) above, with W68F counted along it
Sequence of human GLP-1R E127azF (human) (P43220 24-463 E127F): as the sequence (P43220 24-463) above, with E104F counted along it
Sequence of human GLP-1R R134azF (human) (P43220 24-463 R134F): as the sequence (P43220 24-463) above, with R111F counted along it
Sequence of human GLP-1R S135azF (human) (P43220 24-463 S135F): as the sequence (P43220 24-463) above, with S112F counted along it
Sequence of human GLP-1R R121azF (human) (P43220 24-463 R121F): as the sequence (P43220 24-463) above, with R98F counted along it
Sequence of human GLP-1R E68azF (human) (P43220 24-463 E68F): as the sequence (P43220 24-463) above, with E45F counted along it
Sequence of human GLP-1R S31azF (human) (P43220 other isoform, or with tags, fused parts or gaps): as the sequence (P43220 24-463) above, with S8F counted along it
Sequence of human GLP-1R T35azF (human) (P43220 other isoform, or with tags, fused parts or gaps): as the sequence (P43220 24-463) above, with T12F counted along it
Sequence of human GLP-1R W33azF (human) (P43220 other isoform, or with tags, fused parts or gaps): as the sequence (P43220 24-463) above, with W10F counted along it
Sequence of human GLP-1R S116azF (human) (P43220 24-463 S116F): as the sequence (P43220 24-463) above, with S93F counted along it
Sequence of human GLP-1R Y101azF (human) (P43220 24-463 Y101F): as the sequence (P43220 24-463) above, with Y78F counted along it
Sequence of human GLP-1R W39azF (human) (P43220 other isoform, or with tags, fused parts or gaps): as the sequence (P43220 24-463) above, with W16F counted along it
Sequence of human GLP-1R A70azF (human) (P43220 24-463 A70F): as the sequence (P43220 24-463) above, with A47F counted along it
Sequence of human GLP-1R L32azF (human) (P43220 other isoform, or with tags, fused parts or gaps): as the sequence (P43220 24-463) above, with L9F counted along it
Sequence of human GLP-1R L89azF (human) (P43220 24-463 L89F): as the sequence (P43220 24-463) above, with L66F counted along it
Sequence of human GLP-1R S117azF (human) (P43220 24-463 S117F): as the sequence (P43220 24-463) above, with S94F counted along it
Sequence of human GLP-1R E138azF (human) (P43220 24-463 E138F): as the sequence (P43220 24-463) above, with E115F counted along it
Sequence of human GLP-1R V36azF (human) (P43220 other isoform, or with tags, fused parts or gaps): as the sequence (P43220 24-463) above, with V13F counted along it

As to “exendin-4 (from UniProt P26349 48-87) (peptide)”, the exendin-4-mediated cAMP accumulation in HEK293T cells (+azF), pEC50 in test [1] was 10 -log10 M; in test [2], 11.4 -log10 M; in test [3] it was 11.5 -log10 M; in test [4], 11.3 -log10 M; in test [5] it was 11.1 -log10 M; in [6], 11.4 -log10 M. Also, the exendin-4-mediated cAMP accumulation in HEK293T cells (+azF), pEC50 in test [7] is 9.1 -log10 M; in test [8] it was 11.5 -log10 M; in test [9] it was 10.8 -log10 M; in [10], 11.4 -log10 M; in test [11] it was 11.1 -log10 M; in [12] it was 9.5 -log10 M. Further, the exendin-4-mediated cAMP accumulation in HEK293T cells (+azF), pEC50 in test [13] was 11.3 -log10 M; in test [14] it was 11.2 -log10 M; in test [15], 9.6 -log10 M; in [17] it was 10.8 -log10 M; in test [18], 11.4 -log10 M; in test [19], 11.4 -log10 M. The exendin-4-mediated cAMP accumulation in HEK293T cells (+azF), pEC50 in [20] is 11.1 -log10 M; in test [21] it was 11.5 -log10 M; in [22] it was 10.6 -log10 M; in [23], 11 -log10 M; in [24], 10.6 -log10 M; in [25], 11.5 -log10 M. The exendin-4-mediated cAMP accumulation in HEK293T cells (+azF), pEC50 in test [26] was 11.1 -log10 M; in test [27], 11.2 -log10 M; in test [28], 11.5 -log10 M; in [29] it was 10.3 -log10 M; in test [30], 9.9 -log10 M; in test [31], 10.6 -log10 M. Further, the exendin-4-mediated cAMP accumulation in HEK293T cells (+azF), pEC50 in test [32] and in [33] was 11.4 -log10 M each time. Besides, in test [16], the exendin-4-mediated cAMP accumulation in HEK293T cells, pEC50 was 10.8 -log10 M.

In the case of fluorescein(Lys-20)-exendin-4 (peptide), the cAMP accumulation in HEK293T cells transiently expressing the human GLP-1R, pEC50 in test [34] is 9.3 -log10 M.
